From patent US20260216362A1, “ANTI-BDCA2 ANTIBODY-DRUG CONJUGATE AND USE THEREOF” (DUALITY BIOLOGICS (SHANGHAI) CO., LTD., priority 2022, published 2026)

Columns and labels:
[1] = target: cynomolgus monkey BDCA2 expressed on 293F cells (cynomolgus monkey); assay: FACS on 293F-cynoBDCA2 cells, MFI vs concentration; EC50 from the drawn table (fit of a flat control curve)
[2] = target: T1, human BDCA2 expressed on CHOK1 cells (human, UniProt Q8WTT0 1-213); assay: FACS on CHOK1-hBDCA2 cells, MFI vs concentration; EC50 from the drawn table (fit of a flat control curve)
T1 construct: whole, on cells; also called CHOK1-hBDCA2; CHOK1-humanBDCA2
T1 sequence (looked up): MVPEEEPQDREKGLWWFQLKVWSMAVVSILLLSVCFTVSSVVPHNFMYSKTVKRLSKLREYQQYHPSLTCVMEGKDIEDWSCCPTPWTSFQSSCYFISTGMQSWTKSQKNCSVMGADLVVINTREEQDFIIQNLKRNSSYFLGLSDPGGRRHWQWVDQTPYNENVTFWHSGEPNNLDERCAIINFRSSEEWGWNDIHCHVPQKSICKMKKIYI

[3] = target: T2, Human BDCA2 Fc recombinant protein (human, UniProt Q8WTT0 45-213); assay: ELISA, coated humanBDCA2 Fc
T2 construct: also called HumanBDCA2 Fc protein; not shown: The N-terminal human IgG1 Fc fragment and the linker
T2 sequence: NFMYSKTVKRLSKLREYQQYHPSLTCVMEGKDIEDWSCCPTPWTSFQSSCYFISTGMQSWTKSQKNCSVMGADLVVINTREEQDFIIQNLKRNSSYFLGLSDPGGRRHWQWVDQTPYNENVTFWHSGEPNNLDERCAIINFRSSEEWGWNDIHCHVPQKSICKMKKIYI

[4] = target: T1, human BDCA2 expressed on CHOK1 cells; assay: FACS on CHOK1-hBDCA2 cells
Experimental: (§1) The cells were collected and resuspended to 2×10\hat{ }6 cells/mL in an FACS buffer (PBS+2% FBS). The resuspended cells were added to a 3799 cell plate at 100 μL/well and centrifuged at 300 g, and the supernatant was discarded. […] The cells were resuspended and incubated at 4° C. for 1 h. The incubated cells were centrifuged at 300 g for 5 min and washed twice with the FACS buffer. 100 μL of Goat anti-Human IgG (H+L) Cross-Adsorbed Secondary Antibody, Alexa Fluor 488 (Sigma, A11013; 1:1000) secondary antibody was added. The cells were incubated at 4° C. for 1 h, washed twice with the FACS buffer, and resuspended in PBS. The fluorescence signals of the antibodies for binding to the cell surface were analyzed using an FACS (BD FACS Canto™ II) instrument, curves were fitted using GraphPad Prism6, and EC50 values of the antibodies or antibody-drug conjugates for binding to the BDCA2 antigen were calculated.

[5] = target: T3, cynomolgus monkey BDCA2 expressed on 293F cells (cynomolgus monkey, UniProt A0A2K5UWP4 1-212); assay: FACS on 293F-cynoBDCA2 cells
T3 construct: whole, on cells
T3 sequence: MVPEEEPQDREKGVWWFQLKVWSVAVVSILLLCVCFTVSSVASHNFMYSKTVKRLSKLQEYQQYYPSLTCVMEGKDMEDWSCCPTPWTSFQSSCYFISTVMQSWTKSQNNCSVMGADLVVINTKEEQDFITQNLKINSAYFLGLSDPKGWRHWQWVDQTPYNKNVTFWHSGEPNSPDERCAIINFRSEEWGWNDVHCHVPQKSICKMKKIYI
Experimental: as §1

Work on hIgG1 (antibody) yielded an EC50 [1] of 584 nM and an EC50 [2] of 160000 nM.

B1: mAb001 (antibody)
chain 1: QIQLVQSGPELKKPGETVKISCKASGYTFTDFSMHWVKQAPGKGLKWMGWINTETGEPTYADDFKGRFAFSLETSASTAFLQINNLKNDDTTTYFCSRGGDGHPYWYFAVWGAGTTVTVSS
chain 2: DIVLTQSPASLAVSLGQRATISCRASQSVSTSSYSYMHWYQQKPGQPPKLLIKYASILESGVPARFSGSGSGTDFTLNIHPVEEEDTATYYCQHSWEIPFTFGSGTKLEIK
With B1 the EC50 [3] was less than 0.3 nM.

B2: mAb002 (antibody)
chain 1: QIQLVQSGPELKKPGETVKISCRASGYSFTDYSMHWVKQAPGKGLKWVGWINTETGEPTYADDFKGRFALSLETSATSAYLQINNLKNEDTATYFCARGGDGFPYWYFNVWGAGTTVTVSS
chain 2: DIVLTQSPTSLAVSLGQRTNISCRASQSVSTSSNSYIHWYQQKPGQPPKLLIKYASNLDSGVPARFSGSGSGTDFTLNIHPVEEEDTSTYYCQHSWEIPFTFGSGTKLEIK
With B2 the EC50 [3] was less than 0.3 nM.

B3: mAb020 (antibody)
chain 1: DVQLQESGPGLVKPSQSLSLTCSVTGYSIASGYYWNWIRQFPGNKLEWMGYISFDGTYNYNPSLKDRFSITRDTSKNQFFLKLNSVTTEDTATYYCARGVDYPNAIDWWGQGTSVTVSS
chain 2: DIVLTQSPASLAVSLGQRATISCRASESVSMHVTHLIHWYQQKPGQPPKLLIYVASNLESGVPARFSGSGSETDFTLNIHPVEEEDAATYFCQQSFEDPWTFGGGTKLEIK
Molecule B3 has an EC50 [3] of less than 0.3 nM.

B4: mAb022 (antibody)
chain 1: DVQLQESGPGLVKPSQSLSLTCSVTGYSITSGYYWNWIRQFPGNKLEWMGYISFDGTYNYNPSLKDRFSITRDTSKNQFFLKLNSVTTEDTATYYCARGVDYPKAMDWWGQGTSVTVSS
chain 2: DIVLTQSPASLAVSLGQRATISCRASESVSMHVTHLIHWYQQKPGQPPKLLIYVASNLESGVPARFSGSGSETDFTLNIHPVEEEDAATYFCQQSFEDPWTFGGGTKLEIK
B4 was tested, and the EC50 [3] was less than 0.3 nM.

B5: mAb024 (antibody)
chain 1: EVQLVESGGDLVKPGGSLKLSCAASGFTFSSFGMSWVRQTPDKRLDWVATISSGDSYTYYPDSVKGRFSISRDNAKNTLYLQMSSLKSEDTAVYYCARQIYYDYAYYFDYWGQGTTLTVSS
chain 2: DIVLTQSPASLAVSLGQRATISCRASESVSFRSSHLMHWYRQKPGQPPKLLIYAASNLESGVPARFSGSGSETDFTLNIHPVEEEDAAAYFCQQSIEDPPTFGGGTKLEIK
With B5 the EC50 [3] was less than 0.3 nM.

B6: Hu033-03 (antibody, human IgG1, kappa, V domains shown)
VH: EVQLVESGGGLVKPGGSLRLSCAASGFTFSSYGMSWVRQAPGKGLEWVSTISSGDSYTYYPDSVKGRFTISRDNAKNSLYLQMNSLRAEDTAVYYCARQIYYDYAYYFDFWGQGTTVTVSS
VL: DIVLTQSPASLAVSPGQRATITCRASESVSFRTSHLMHWYQQKPGQPPKLLIYGASNLESGVPARFSGSGSETDFTLTINPVEAEDTANYFCQQSIEDPPTFGGGTKVEIKR
notes: Humanized IgG1; also called Hu033-03(BM3)
B6 was tested, and the EC50 [4] was 1.23 nM and the EC50 [5] was 1.91 nM.

B7: Hu033-03-ADC (antibody, human IgG1, kappa, V domains shown)
VH: EVQLVESGGGLVKPGGSLRLSCAASGFTFSSYGMSWVRQAPGKGLEWVSTISSGDSYTYYPDSVKGRFTISRDNAKNSLYLQMNSLRAEDTAVYYCARQIYYDYAYYFDFWGQGTTVTVSS
VL: DIVLTQSPASLAVSPGQRATITCRASESVSFRTSHLMHWYQQKPGQPPKLLIYGASNLESGVPARFSGSGSETDFTLTINPVEAEDTANYFCQQSIEDPPTFGGGTKVEIKR
modifications: Compound 9 (glucocorticoid linker-payload) coupled to cysteine sulfhydryls after TCEP reduction, positions not given; average 4.01 per antibody by HIC
notes: also called Hu033-03 antibody-drug conjugate; BDCA2-ADC
B7 gave an EC50 [4] of 1.6 nM and an EC50 [5] of 2.36 nM.

B8: mAb019 (antibody)
chain 1: EVKLVESGGDLVQPGGSLKLSCAASGFTFSDYYMYWVRQTPEKRLEWVAYISYSGDSTYYPDTVKGRFTISRDNAKNTLFLQMSRLKSEDTAMYYCARHSPSFPYYFDYWGQGTALTVSS
chain 2: EIVLTQSPAITAASLGQKVTITCSASSSVSYMHWYQQKSGTSPKPWIYEISKLASGVPARFSGSGSGTSYSLTISSMEAEDAAIYYCQLWNYPLITFGGGTNLEIK
B8 showed an EC50 [3] of less than 0.3 nM.

B9: mAb021 (antibody)
chain 1: DVQLQESGPGLVKPSQSLSLTCSVTGYSITSAYYWNWIRQFPGNKLECMGYITYDGNNYYSPSLKNRISITRDTSKNQFFLNLNSVTTEDTATYFCARGGDYDDGGFAFWGQGTLVTVSA
chain 2: DIQMTQSPASLSASVGETVTITCRASGNIHNYLAWYHQKQGKSPQLLVYNAKSLVDGVPSRFSGSGSGTQYSLRINSLQPEDFGSYYCQHFWIVPYTFGGGTKLEII
With B9 the EC50 [3] was less than 0.3 nM.

B10: mAb030 (antibody)
chain 1: DVQLQESGPGLVKPSQSLSLTCSVTGYSITSAYYWNWIRQFPGNKLECMGYISYDGSNYYNPSLKNRISITRDTSKNQFFLSLNSVTTEDTATYFCVRGGDYDDGGFAYWGQGTLVTVSA
chain 2: DIQMTQSPASLSASVGETVTITCRASGNIHNYLAWYQQKQGKSPQLLVYNAKTLADGVPSRFSGSGSETQYSLKINSLQPEDFGNYFCQHFWIIPYTFGGGTKLEIK
Work on B10 yielded an EC50 [3] of less than 0.3 nM.

B11: mAb027 (antibody)
chain 1: DVQLQESGPGLVKPSQSLSLTCSVTGYSITSAYYWNWVRQFPGNQLECMGYITYDGSNNYNPSLKNRISITRDTSKNQFFLKLNSVTTEDTATYYCVRGGDYDDGGFAYWGQGTLVTVSA
chain 2: DIQMTQSPASLSASVGETVTITCRASGNIHNYLAWYQQKQGKSPQLLVYNAKTLVDGVPSRFSGSGSGTEYSLKINSLQPEDFGIYFCQHFWIIPYTFGGGTKLEIR
With B11 the EC50 [3] was less than 0.3 nM.

B12: BIIB059 (antibody, human IgG1, kappa, V domains shown)
VH: DVQLVESGGGLVKPGGSLRLSCAASGFTFSTYTMSWVRQAPGKGLEWVATISPGDSFGYYYPDSVQGRFTISRDNAKNSLYLQMNSLRAEDTAVYYCTRDIYYNYGAWFAYWGQGTLVTVSS
VL: DIQLTQSPSSLSASVGDRVTITCKASQSVDYDGDSYMNWYQQKPGKAPKLLIYAASTLESGVPSRFSGSGSGTDFTLTISSLQPEDFATYYCQQANEDPRTFGQGTKVEIKR
notes: also called positive control antibody BIIB059
With B12 the EC50 [4] was 3.29 nM.

B13: mAb005 (antibody)
chain 1: QVQLKQSGPGLVQPSQSLSITCTVSGFSLTNYGVHWVRQSPGKGLEWLGVIWSGESTDYDAAFISRLSISKDNSKSQVFFKMNSLQADDSAIYYCARRRSHYYGYVMDYWGQGTSVTVSS
chain 2: DIVLTQSPASLAVSLGQRATISCKASQSIDYDGIGYLNWYQHKPGQPPKLLIYAASNLESGIPARFSGSGSGTDFTLNIHPVEEEDAATYYCQQSNEDPPTFGSGTKLEIK
B13 gave an EC50 [3] of less than 0.3 nM.

B14: mAb016 (antibody)
chain 1: QVQLKQSGPGLVQPSQSLSITCTVSGFSLTSYGVHWVRQSPGKGLEWLGVIWSGESTDYDAAFISRLSISKDNSKSQVFFRMNSLQADDSAIYYCARRRSHYYGYVMDYWGQGTSVTVSS
chain 2: DIVLTQSPASLAVSLGQRATISCKASQSVDYDGVGYLNWYQHKPGQPPKLLIYAASNLESGIPARFSGSGSGTDFTLNIHPVEEEDAATYYCQQSNEDPPTFGSGTKLEIK
With B14 the EC50 [3] was less than 0.3 nM.
